Source: patent US20130324409A1 (University of California, published 2013)

How the values were obtained:
[1] = molecular target: T1, GST-HAB1 (Arabidopsis, UniProt Q9CAJ0 23-511); experiment: cell-based or functional assay
T1 sequence (looked up): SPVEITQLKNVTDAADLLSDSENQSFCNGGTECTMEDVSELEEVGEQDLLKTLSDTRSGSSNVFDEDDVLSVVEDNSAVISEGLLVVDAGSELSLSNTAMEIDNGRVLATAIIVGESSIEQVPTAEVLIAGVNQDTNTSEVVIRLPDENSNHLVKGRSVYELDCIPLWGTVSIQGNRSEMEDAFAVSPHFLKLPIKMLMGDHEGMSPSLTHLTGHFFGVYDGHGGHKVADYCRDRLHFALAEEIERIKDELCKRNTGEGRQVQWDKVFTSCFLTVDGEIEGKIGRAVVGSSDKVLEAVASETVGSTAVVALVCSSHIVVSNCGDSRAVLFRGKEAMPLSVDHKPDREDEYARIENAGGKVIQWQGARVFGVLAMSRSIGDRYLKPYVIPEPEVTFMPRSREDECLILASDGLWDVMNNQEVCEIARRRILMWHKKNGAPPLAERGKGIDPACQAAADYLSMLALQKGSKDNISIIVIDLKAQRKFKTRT

[2] = molecular target: T2, ABI1 (yeast two-hybrid construct) (UniProt P49597 1-434); experiment: yeast two-hybrid
T2 construct: also called wild type ABI1; cDNA C104649
T2 sequence (looked up): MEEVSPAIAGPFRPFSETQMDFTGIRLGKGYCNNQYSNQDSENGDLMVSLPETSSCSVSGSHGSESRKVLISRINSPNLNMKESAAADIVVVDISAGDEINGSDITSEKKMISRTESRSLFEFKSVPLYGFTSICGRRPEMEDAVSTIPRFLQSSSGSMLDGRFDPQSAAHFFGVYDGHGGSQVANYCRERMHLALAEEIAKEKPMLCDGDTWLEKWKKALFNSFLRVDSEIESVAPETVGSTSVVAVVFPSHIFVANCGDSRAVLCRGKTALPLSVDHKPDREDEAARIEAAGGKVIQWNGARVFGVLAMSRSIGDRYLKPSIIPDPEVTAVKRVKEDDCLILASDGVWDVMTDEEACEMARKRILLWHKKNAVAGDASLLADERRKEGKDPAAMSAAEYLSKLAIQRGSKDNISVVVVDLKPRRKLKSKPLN

[3] = molecular target: T3, ABI2 (yeast two-hybrid construct) (UniProt O04719 1-423); experiment: yeast two-hybrid
T3 construct: also called wild type ABI2; cDNA U24491
T3 sequence (looked up): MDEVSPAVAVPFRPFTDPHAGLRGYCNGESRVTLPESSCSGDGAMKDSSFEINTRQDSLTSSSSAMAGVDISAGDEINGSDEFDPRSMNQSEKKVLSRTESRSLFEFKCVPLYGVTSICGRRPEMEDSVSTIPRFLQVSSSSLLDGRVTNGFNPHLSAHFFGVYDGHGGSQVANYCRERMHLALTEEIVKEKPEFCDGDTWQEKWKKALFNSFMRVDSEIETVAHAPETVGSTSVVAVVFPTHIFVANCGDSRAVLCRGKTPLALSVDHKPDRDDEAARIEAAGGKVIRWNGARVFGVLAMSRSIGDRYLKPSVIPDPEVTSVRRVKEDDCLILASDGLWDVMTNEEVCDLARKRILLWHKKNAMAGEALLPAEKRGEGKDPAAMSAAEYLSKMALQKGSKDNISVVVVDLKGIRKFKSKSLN

[4] = molecular target: T4, ABI2^G168D encoded by abi2-1 (yeast two-hybrid construct) (UniProt O04719 1-423); experiment: yeast two-hybrid
T4 construct: ABA insensitive mutant protein; also called mutant protein encoded by abi2-1
T4 sequence (looked up): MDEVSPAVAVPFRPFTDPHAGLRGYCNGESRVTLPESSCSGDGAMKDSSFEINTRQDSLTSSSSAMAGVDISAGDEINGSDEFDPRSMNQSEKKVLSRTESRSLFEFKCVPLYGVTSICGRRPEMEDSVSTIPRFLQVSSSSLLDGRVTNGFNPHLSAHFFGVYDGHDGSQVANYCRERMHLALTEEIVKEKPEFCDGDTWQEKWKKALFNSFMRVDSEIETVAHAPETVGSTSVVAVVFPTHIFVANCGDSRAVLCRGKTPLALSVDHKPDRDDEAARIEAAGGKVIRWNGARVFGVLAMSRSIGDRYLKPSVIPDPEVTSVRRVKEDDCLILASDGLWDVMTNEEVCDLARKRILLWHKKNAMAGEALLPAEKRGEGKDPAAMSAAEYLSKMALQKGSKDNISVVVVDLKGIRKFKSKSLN

[5] = molecular target: T5, GST-ABI1 (UniProt P49597 1-434); experiment: His-tag pull-down, E. coli lysate holding the PP2C
T5 construct: Used as cleared E. coli lysate in the pull-downs; not shown: glutathione S-transferase (GST)
T5 sequence (looked up): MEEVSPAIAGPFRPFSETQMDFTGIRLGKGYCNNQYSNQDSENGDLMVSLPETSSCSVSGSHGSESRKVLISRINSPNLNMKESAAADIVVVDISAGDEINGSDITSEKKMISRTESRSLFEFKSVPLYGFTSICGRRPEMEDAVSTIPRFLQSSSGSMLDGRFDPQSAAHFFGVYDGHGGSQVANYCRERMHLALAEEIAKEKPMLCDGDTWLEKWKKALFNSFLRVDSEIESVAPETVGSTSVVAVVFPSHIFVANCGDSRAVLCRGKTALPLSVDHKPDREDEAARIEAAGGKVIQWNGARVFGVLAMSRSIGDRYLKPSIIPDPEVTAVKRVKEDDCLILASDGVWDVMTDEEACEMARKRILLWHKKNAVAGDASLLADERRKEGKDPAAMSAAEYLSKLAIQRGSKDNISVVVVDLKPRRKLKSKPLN
Experimental: (§1) To explore the functional implications of the PYR1-PP2C interaction, we examined if an ABA response could be reconstituted in vitro. Recombinant GST-HAB1, GST-ABI1 and GST-ABI2 were expressed in E. coli and tested for ligand-dependent interactions with 6×His-PYR1 in pull-down assays. Purified 6×His-PYR1 and GST-HAB1 (20 and 100 μg respectively, 8 μM PYR1 final concentration), were combined in 100 μl TBS containing 10 μM (+)-ABA or 1% DMSO for negative control. The reaction was incubated for 90 minutes at RT and 5 μl of PrepEase (USB) His-tagged protein purification resin was added. The resin and reaction mixture was incubated 30 min at RT with gentle shaking at 5 min intervals. The resin was washed five times with TBS containing 10 μM (+)-ABA. After the final wash, the bound protein was eluted in 20 μl SDS-PAGE buffer, boiled for 5 minutes and centrifuged. 5 μl of eluate was analyzed on SDS-PAGE. For pull-downs with ABI1 and ABI2, crude lysates were used in a similar method, except purified PP2C was replaced with cleared E. coli lysates. The amount of lysate added was determined by SDS-page analysis to yield ˜100 μg PP2C, such that the same stoichiometry was used as in assays using purified proteins.

[6] = molecular target: T6, GST-ABI2 (UniProt O04719 1-423); experiment: His-tag pull-down, E. coli lysate holding the PP2C
T6 construct: Used as cleared E. coli lysate in the pull-downs; not shown: glutathione S-transferase (GST)
T6 sequence (looked up): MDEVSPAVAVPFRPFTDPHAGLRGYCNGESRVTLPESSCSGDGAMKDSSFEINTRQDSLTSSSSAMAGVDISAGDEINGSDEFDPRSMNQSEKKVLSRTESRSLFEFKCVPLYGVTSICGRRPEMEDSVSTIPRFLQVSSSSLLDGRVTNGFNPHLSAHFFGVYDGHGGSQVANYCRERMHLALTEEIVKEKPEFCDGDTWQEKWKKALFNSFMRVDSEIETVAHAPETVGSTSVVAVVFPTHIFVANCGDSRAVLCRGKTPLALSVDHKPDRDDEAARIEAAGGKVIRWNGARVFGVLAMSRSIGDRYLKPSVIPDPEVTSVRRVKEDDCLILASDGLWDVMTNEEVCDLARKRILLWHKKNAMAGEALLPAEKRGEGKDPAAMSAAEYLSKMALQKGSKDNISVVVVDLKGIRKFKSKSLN
Experimental: as §1

[7] = molecular target: T7, PYL4 6×His-tagged protein
T7 chain: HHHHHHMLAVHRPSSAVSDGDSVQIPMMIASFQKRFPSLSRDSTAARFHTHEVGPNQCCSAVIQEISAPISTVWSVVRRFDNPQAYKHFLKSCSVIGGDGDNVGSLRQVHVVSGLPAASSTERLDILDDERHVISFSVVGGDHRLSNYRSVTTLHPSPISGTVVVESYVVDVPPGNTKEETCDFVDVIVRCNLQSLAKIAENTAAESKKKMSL

B1: 6×His-PYR1 (receptor, not shown: small tags and cut ends)
chain: MPSELTPEERSELKNSIAEFHTYQLDPGSCSSLHAQRIHAPPELVWSIVRRFDKPQTYKHFIKSCSVEQNFEMRVGCTRDVIVISGLPANTSTERLDILDDERRVTGFSIIGGEHRLTNYKSVTTVHRFEKENRIWTVVLESYVVDMPEGNSEDDTRMFADTVVKLNLQKLATVAEAMARNSGDGSGSQVT
B1 was tested, and the “IC50 of (+)-ABA for inhibition of HAB1 phosphatase activity (substrate pNPP) in the presence of PYR1” value [1] was 0.18 µM.

B2: BD-PYR1 fusion protein (receptor, not shown: large carriers; small tags and cut ends)
chain: MPSELTPEERSELKNSIAEFHTYQLDPGSCSSLHAQRIHAPPELVWSIVRRFDKPQTYKHFIKSCSVEQNFEMRVGCTRDVIVISGLPANTSTERLDILDDERRVTGFSIIGGEHRLTNYKSVTTVHRFEKENRIWTVVLESYVVDMPEGNSEDDTRMFADTVVKLNLQKLATVAEAMARNSGDGSGSQVT
notes: Pyr1 open reading frame cloned in frame into pBD-GAL4 Cam, expressed in yeast Y190; also called PYR1 Y2H bait construct; PYRABACTIN … 1
B2: binds [2]; binds [3]; no binding [4].

B3: 6×His-PYR1^P88S (receptor)
chain: MPSELTPEERSELKNSIAEFHTYQLDPGSCSSLHAQRIHAPPELVWSIVRRFDKPQTYKHFIKSCSVEQNFEMRVGCTRDVIVISGLSANTSTERLDILDDERRVTGFSIIGGEHRLTNYKSVTTVHRFEKENRIWTVVLESYVVDMPEGNSEDDTRMFADTVVKLNLQKLATVAEAMARNSGDGSGSQVT
notes: also called pyr1-3 mutant protein; not shown: 6×His tag and vector residues of pET28
B3: no binding (tested: 10 µM (+)-ABA) [5]; no binding (tested: 10 µM (+)-ABA) [6].

B4: GST-HAB1 (protein)
chain: SPVEITQLKNVTDAADLLSDSENQSFCNGGTECTMEDVSELEEVGEQDLLKTLSDTRSGSSNVFDEDDVLSVVEDNSAVISEGLLVVDAGSELSLSNTAMEIDNGRVLATAIIVGESSIEQVPTAEVLIAGVNQDTNTSEVVIRLPDENSNHLVKGRSVYELDCIPLWGTVSIQGNRSEMEDAFAVSPHFLKLPIKMLMGDHEGMSPSLTHLTGHFFGVYDGHGGHKVADYCRDRLHFALAEEIERIKDELCKRNTGEGRQVQWDKVFTSCFLTVDGEIEGKIGRAVVGSSDKVLEAVASETVGSTAVVALVCSSHIVVSNCGDSRAVLFRGKEAMPLSVDHKPDREDEYARIENAGGKVIQWQGARVFGVLAMSRSIGDRYLKPYVIPEPEVTFMPRSREDECLILASDGLWDVMNNQEVCEIARRRILMWHKKNGAPPLAERGKGIDPACQAAADYLSMLALQKGSKDNISIIVIDLKAQRKFKTRT
With B4 the “HAB1 phosphatase activity (substrate pNPP)” value [7] was “(+)-ABA inhibits HAB1 phosphatase activity in the presence of PYL4”.
